Assay results as given in patent US5747329.

Target: heavy subunit of rat kidney gamma-glutamylcysteine synthetase (rat)

Apparent Km for glutamate (mM), co-expressed recombinant holoenzyme: 1.8 mM
Apparent Km for glutamate (mM), recombinant holoenzyme made by mixing the separately expressed subunits: 2.8 mM
Substance: light subunit of rat kidney gamma-glutamylcysteine synthetase (enzyme)
